Data as given in US20260242839A1, “GLYCOSIDE PRODUCT BIOSYNTHESIS AND RECOVERY” (Manus Bio Inc., priority 2023, published 2026).
Positions count from the first letter of the chain named. In names and notes the source's numbering stands.

B1: SEQ ID NO: 74: CcUGT_1,6 (Coffea canephora) (protein, listed as Coffea canephora)
chain: MAENHATFNVLMLPWLAHGHVSPYLELAMKLTARNFNVYLCSSPATLSSVRSKLTEKFSQSIHLVELHLPKLPELPAEYHTTNGLPPHLMPTLKDAFDMAKPNFCNVLKSLKPDLLIYDLLQPWAPEAASAFNIPAVVFISSSATMTSFGLHFFKNPGTKYPYGNTIFYRDYESVFVENLKKRDRDTYRVVNCMERSSKIILIKGFKEIEGKYFDYFSCLTGKKVVPVGPLVQDPVLDDEDCRIMQWLNKKEKGSTVFVSFGSEYFLSKEDMEEIAHGLELSNVDFIWVVRFPKGENIVIEETLPKGFFERVGERGLVVNGWAPQAKILTHPNVGGFVSHCGWNSVMESMKFGLPIVAMPMHLDQPINARLIEEVGAGVEVLRDSKGKLHRERMAETINKVTKEASGEPARKKARELQEKLELKGDEEIDDVVKELVQLCATKNKRNGLHCYN
B2: SEQ ID NO: 79: PgUGT94_B1 (Panax ginseng) (protein)
chain: MADNQNGRISIALLPFLAHGHISPFFELAKQLAKRNCNVFLCSTPINLSSIKDKDSSASIKLVELHLPSSPDLPPHYHTTNGLPSHLMLPLRNAFETAGPTFSEILKTLNPDLLIYDFNPSWAPEIASSHNIPAVYFLTTAAASSSIGLHAFKNPGEKYPFPDFYDNSNITPEPPSADNMKLLHDFIACFERSCDIILIKSFRELEGKYIDLLSTLSDKTLVPVGPLVQDPMGHNEDPKTEQIINWLDKRAESTVVFVCFGSEYFLSNEELEEVAIGLEISTVNFIWAVRLIEGEKKGILPEGFVQRVGDRGLVVEGWAPQARILGHSSTGGFVSHCGWSSIAESMKFGVPVIAMARHLDQPLNGKLAAEVGVGMEVVRDENGKYKREGIAEVIRKVVVEKSGEVIRRKARELSEKMKEKGEQEIDRALEELVQICKKKKDEQ
modifications: Panax ginseng
B3: SEQ ID NO: 39: SgUGT94-289-1 (Siraitia grosvenorii) (protein)
chain: MDAQRGHTTTILMFPWLGYGHLSAFLELAKSLSRRNFHIYFCSTSVNLDAIKPKLPSSSSSDSIQLVELCLPSSPDQLPPHLHTTNALPPHLMPTLHQAFSMAAQHFAAILHTLAPHLLIYDSFQPWAPQLASSLNIPAINFNTTGASVLTRMLHATHYPSSKFPISEFVLHDYWKAMYSAAGGAVTKKDHKIGETLANCLHASCSVILINSFRELEEKYMDYLSVLLNKKVVPVGPLVYEPNQDGEDEGYSSIKNWLDKKEPSSTVFVSFGSEYFPSKEEMEEIAHGLEASEVHFIWVVRFPQGDNTSAIEDALPKGFLERVGERGMVVKGWAPQAKILKHWSTGGFVSHCGWNSVMESMMFGVPIIGVPMHLDQPFNAGLAEEAGVGVEAKRDPDGKIQRDEVAKLIKEVVVEKTREDVRKKAREMSEILRSKGEEKMDEMVAAISLFLKI
B4: G210E: mutation to UGT enzyme of SEQ ID NO: 13 (protein)
chain: MATKGSSGMSLAERFWLTLSRSSLVVGRSCVEFEPETVPLLSTLRGKPITFLGLMPPLHEGRREDGEDATVRWLDAQPAKSVVYVALGSEVPLGVEKVHELALGLELAGTRFLWALRKPTGVSDADLLPAGFEERTRGRGVVATRWVPQMSILAHAAVGAFLTHCGWNSTIEGLMFGHPLIMLPIFGDQGPNARLIEAKNAGLQVARNDEDGSFDREGVAAAIRAVAVEEESSKVFQAKAKKLQEIVADMACHERYIDGFIQQLRSYKDDSGYSSSYAAAAGMHVVICPWLAFGHLLPCLDLAQRLASRGHRVSFVSTPRNISRLPPVRPALAPLVAFVALPLPRVEGLPDGAESTNDVPHDRPDMVELHRRAFDGLAAPFSEFLGTACADWVIVDVFHHWAAAAALEHKVPCAMMLLGSAEMIASIADERLEHAETESPAAAGQGRPAAAPTFEVARMKLIR
B5: F186M: mutation to UGT enzyme of SEQ ID NO: 13 (protein)
chain: B4 chain with F186M, E210G
B6: V456S: mutation to UGT enzyme of SEQ ID NO: 13 (protein)
chain: B4 chain with E210G, V456S
B7: G5N: mutation to UGT enzyme of SEQ ID NO: 13 (protein)
chain: B4 chain with G5N, E210G
B8: F186T: mutation to UGT enzyme of SEQ ID NO: 13 (protein)
chain: B4 chain with F186T, E210G
B9: A248G: mutation to UGT enzyme of SEQ ID NO: 13 (protein)
chain: B4 chain with E210G, A248G
B10: V397S: mutation to UGT enzyme of SEQ ID NO: 13 (protein)
chain: B4 chain with E210G, V397S
B11: V456W: mutation to UGT enzyme of SEQ ID NO: 13 (protein)
chain: B4 chain with E210G, V456W
B12: A451L: mutation to UGT enzyme of SEQ ID NO: 13 (protein)
chain: B4 chain with E210G, A451L
B13: T453R: mutation to UGT enzyme of SEQ ID NO: 13 (protein)
chain: B4 chain with E210G, T453R
B14: V397C: mutation to UGT enzyme of SEQ ID NO: 13 (protein)
chain: B4 chain with E210G, V397C
B15: T453K: mutation to UGT enzyme of SEQ ID NO: 13 (protein)
chain: B4 chain with E210G, T453K
B16: F186I: mutation to UGT enzyme of SEQ ID NO: 13 (protein)
chain: B4 chain with F186I, E210G
B17: A451T: mutation to UGT enzyme of SEQ ID NO: 13 (protein)
chain: B4 chain with E210G, A451T
B18: V456M: mutation to UGT enzyme of SEQ ID NO: 13 (protein)
chain: B4 chain with E210G, V456M
B19: V91A: mutation to UGT enzyme of SEQ ID NO: 13 (protein)
chain: B4 chain with V91A, E210G
B20: C288F: mutation to UGT enzyme of SEQ ID NO: 13 (protein)
chain: B4 chain with E210G, C288F
B21: SEQ ID NO: 78: OsJUGT_1,6 (Oryza sativa) (protein, listed as Oryza sativa)
chain: MAQAERERLRVLMFPWLAHGHINPYLELATRLTTTSSSQIDVVVHLVSTPVNLAAVAHRRTDRISLVELHLPELPGLPPALHTTKHLPPRLMPALKRACDLAAPAFGALLDELSPDVVLYDFIQPWAPLEAAARGVPAVHFSTCSAAATAFFLHFLDGGGGGGGRGAFPFEAISLGGAEEDARYTMLTCRDDGTALLPKGERLPLSFARSSEFVAVKTCVEIESKYMDYLSKLVGKEIIPCGPLLVDSGDVSAGSEADGVMRWLDGQEPGSVVLVSFGSEYFMTEKQLAEMARGLELSGAAFVWVVRFPQQSPDGDEDDHGAAAARAMPPGFAPARGLVVEGWAPQRRVLSHRSCGAFLTHCGWSSVMESMSAGVPMVALPLHIDQPVGANLAAELGVAARVRQERFGEFEAEEVARAVRAVMRGGEALRRRATELREVVARRDAECDEQIGALLHRMARLCGKGTGRAAQLGH

Columns and labels:
[1] = system: Mog. IIE or Mog. IE; assay: branched glycosylation reactions by cells expressing UGT enzymes; type: cell-based, E. coli; details: Mog. IIE or Mog. IE fed; 37° C., 48 hr; LC-MS/MS
Procedure: Mog. IIE or Mog. IE was fed to cells expressing various UGT enzymes. Reactions were incubated at 37° C. for 48 hr. Products were quantified by LC-MS/MS with authentic standards of each compound. “Indirect” evidence means that consumption of substrate was observed.

[2] = system: steviol glycoside; assay: steviol glycoside bioconversion by E. coli expressing individual mutations of UGT SEQ ID NO: 13; type: cell-based; details: fold improvement of % conversion vs parent UGT SEQ ID NO: 13; stevia leaf extract and glucose fed; 37° C., 48 hr
Source text: A UGT enzyme referred to as MbUGT1,2 is described in U.S. Pat. No. 10,743,567, which is hereby incorporated by reference. An engineered version of MbUGT1,2 (SEQ ID NO: 13) is described in US 2020/0087692, which is hereby incorporated by reference in its entirety. The UGT enzyme of SEQ ID NO: 13 was further engineered to improve activity for steviol glycoside bioconversion. […] Fold improvement is with respect to % steviol glycoside conversion of the parent UGT enzyme (SEQ ID NO: 13). SEQ ID NO: 14 has the following mutations from SEQ ID NO: 13: G5N, F186T, V397S. Stevia leaf extract and glucose were fed to the bioconversion strains. Bioconversion took place at 37° C. for 48 hr. Data were quantified by reverse phase LC DAD to quantify conversion of steviol glycosides.
Fold improvement (FI) is with respect to % steviol glycoside conversion.

Row | Molecule | C3 1-2 [1] | C3 1-6 [1] | C24 1-2 [1] | C24 1-6 [1] | FI %Stevioside→rebE [2] | FI %rebA→rebD [2]
1 | B1 | No | Yes | No | Yes | – | –
2 | B2 | No | No | No | Yes | – | –
3 | B3 | No | Yes | Yes | Yes | – | –
4 | B4 | – | – | – | – | 1.2 | 1.2
5 | B5 | – | – | – | – | 2.9 | 2.3
6 | B6 | – | – | – | – | 1.5 | 1.6
7 | B7 | – | – | – | – | 1.5 | 1.5
8 | B8 | – | – | – | – | 1.8 | 1.7
9 | B9 | – | – | – | – | 1.1 | 1.1
10 | B10 | – | – | – | – | 3.8 | 3.4
11 | B11 | – | – | – | – | 1.2 | 1.2
12 | B12 | – | – | – | – | 1.4 | 1.5
13 | B13 | – | – | – | – | 1.4 | 1.6
14 | B14 | – | – | – | – | 1.9 | 1.9
15 | B15 | – | – | – | – | 1.4 | 1.6
16 | B16 | – | – | – | – | 2.6 | 2.1
17 | B17 | – | – | – | – | 1.8 | 2.0
18 | B18 | – | – | – | – | 1.5 | 1.5
19 | B19 | – | – | – | – | 1.1 | 1.1
20 | B20 | – | – | – | – | 1.7 | 1.5
21 | B21 | No | No | Yes | No | – | –
